Experimental findings from patent US20200040045, “CARBOHYDRATE PRODUCING PLANT MATERIAL” (GREEN RICE SWEDEN AB, published 2020) are described below.

The target of data set [1] is SUSIBA1 (Hordeum vulgare). As to the kind of experiment: EMSA; A-stretch substitution. To be noted: tags: overexpressed in and purified from E. coli; label: 32P. The method, then: (§1) Bars in (A-D)=5 μm and in (K-M)=100 μm. One-way ANOVA was used (Error bars show s.d. and **p≤0.01 between heat-killed background and living agrobacteria).
Sequence of SUSIBA1 (Hordeum vulgare) (Q6VWJ6 293-573): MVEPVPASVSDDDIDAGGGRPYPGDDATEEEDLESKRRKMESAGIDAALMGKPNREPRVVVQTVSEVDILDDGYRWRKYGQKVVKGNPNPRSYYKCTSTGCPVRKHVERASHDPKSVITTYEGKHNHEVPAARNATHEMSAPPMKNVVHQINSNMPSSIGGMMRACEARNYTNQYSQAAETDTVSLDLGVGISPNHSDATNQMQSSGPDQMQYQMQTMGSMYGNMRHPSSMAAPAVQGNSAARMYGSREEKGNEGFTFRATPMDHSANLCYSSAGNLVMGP
(§2) Having identified SUSIBA1 p, the potential involvement of SUSIBA1 in fructan synthesis was investigated. […] Electrophoretic mobility shift assay (EMSA) was used to study the in vitro interaction between SUSIBA1 and the promoter of 6-SFT that encodes a key enzyme in synthesis of fructan in barley. EMSA was performed as described previously using overexpressed and purified SUSIBA1 from E. coli (FIG. 8E to 8J). In accordance with the hallmark of WRKY proteins, it was shown that the […] TF bound to the W-box DNA cis-element. […] Examination of the 6-SFT promoter led to identification of two SUREa, three W-box and one SP8a element (FIG. 8E). Using different combinations of the restriction enzymes BstXI, PvulI and SpeI, the full-length promoter (fragment 1) was resolved into four fragments (fragments 2-5, FIG. 8E). […] To confirm the specificity of the binding activity, the element sequences (FIG. 8I) were engineered and the binding of SUSIBA1 was tested. […] No binding activity of SUSIBA1 to the engineered element sequences, i.e., SP8a M, W-box M and SUREa M4 also indicated the reliability of EMSA in the assay system (FIG. 8J). […]
Background: Mobility shift assays separate free from complexed probe on a gel.

In data set [2] the target is SUSIBA1 (Hordeum vulgare). As to the kind of experiment: EMSA. To be noted: tags: overexpressed in and purified from E. coli; label: 32P; second strand printed as 3'-5' complement, annealed duplex. The method, then:
as §1, §2

Data set [3] has as its target SUSIBA1 (Hordeum vulgare). In words: EMSA; 0.0125-0.2 ug SUSIBA1 prevents binding of 0.2 ug SUSIBA2 to the W-box. To be noted: tags: overexpressed in and purified from E. coli; label: 32P. The method, then: (§3) The infiltrated leaves were incubated at 40 mM Suc. Two days after infiltration and incubation, qPCR analysis was performed. (C) Transcript levels of SUSIBA2 after co-infiltration of agrobacteria containing p35S:SUSIBA2 with the double-stranded decoy oligoes upon antisense inhibition of SUSIBA1. (D) Transcript levels of SUSIBA2 after infiltration of agrobacteria containing p35S:SUSIBA2 alone or the double-stranded decoy oligoes alone at 100 mM Suc. The infiltrated leaves were incubated at 100 mM Suc for two days before analysis. Significant differences are analyzed statistically between p35S:SUSIBA1 and decoy oligoes, and indicated by asterisks (**p≤0.01) in (B), and between p35:SUSIBA2 and decoy oligoes in (C), and between p35:SUSIBA2 and decoy oligoes in (D). One-way ANOVA was used (Error bars show s.d.) Three independent experiments were performed (n=3). (E) EMSA analysis of competitive activity to the W-box in the SUSIBA2 promoter between SUSIBA2 and SUSIBA1. EMSA of binding activity to the W-box of SUSIBA2 (left panel) and SUSIBA1 (middle panel) and SUSIBA2 and SUSIBA1 in competing (right panel). SUSIBA2 and SUSIBA1 were overexpressed and purified from E. coli and challenged with two oligoes. […]

Another data set has as its target SUSIBA2 (Hordeum vulgare, UniProt Q6VWJ6 SEQ:1-573). In words: EMSA; 0.2 ug SUSIBA2; displaced by SUSIBA1. The conditions noted are these: tags: overexpressed and purified; label: 32P. The method, then: as §3

Sequence of SUSIBA2 (Q6VWJ6 whole entry): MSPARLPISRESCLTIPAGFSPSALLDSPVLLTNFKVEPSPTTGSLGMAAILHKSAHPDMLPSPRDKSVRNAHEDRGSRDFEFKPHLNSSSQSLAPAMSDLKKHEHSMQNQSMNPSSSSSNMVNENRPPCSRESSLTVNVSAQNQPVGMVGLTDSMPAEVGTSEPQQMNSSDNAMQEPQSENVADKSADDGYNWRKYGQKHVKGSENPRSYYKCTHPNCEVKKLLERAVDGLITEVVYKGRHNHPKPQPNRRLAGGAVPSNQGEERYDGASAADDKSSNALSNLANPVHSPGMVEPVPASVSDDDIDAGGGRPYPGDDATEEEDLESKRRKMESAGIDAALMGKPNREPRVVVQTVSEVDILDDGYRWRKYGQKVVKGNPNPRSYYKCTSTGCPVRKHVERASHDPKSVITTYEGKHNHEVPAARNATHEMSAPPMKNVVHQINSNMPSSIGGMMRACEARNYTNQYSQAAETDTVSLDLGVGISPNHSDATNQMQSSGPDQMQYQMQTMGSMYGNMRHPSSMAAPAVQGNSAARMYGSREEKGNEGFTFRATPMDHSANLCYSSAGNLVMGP

B1: SUREa M4 (dsDNA)
DNA 1: CAAAAAAAAAAAAAAAAAAC
DNA 2: GTTTTTTTTTTTTTTTTTTG
B1: the binding result in the data set with SUSIBA1 [1] was “no binding”.

B2: 6-SFT SUREa (dsDNA)
DNA 1: CACACATGGCACGCCAAAAC
DNA 2: GTTTTGGCGTGCCATGTGTG
As for B2, in the data set with SUSIBA1 [2], the binding result is “binds”.

B3: SUSIBA2 promoter W-box oligo (dsDNA)
DNA 1: TAGGTCGTCAATTTGACTTATATAAAATAT
DNA 2: ATATTTTATATAAGTCAAATTGACGACCTA
B3: the binding result in the data set with SUSIBA1 [3] and in the data set with SUSIBA2 was “binds” throughout.

B4: 6-SFT SP8a (dsDNA)
DNA 1: CTGTACTGTGTTTTTAGCCT
DNA 2: AGGCTAAAAACACAGTACAG
In the case of B4, the binding result in the data set with SUSIBA1 [2] is listed as “binds”.
